Results published in publication PMC3173369, “Mitochondrial Inhibitory Factor 1 (IF1) Is Present in Human Serum and Is Positively Correlated with HDL-Cholesterol” (PLoS ONE, 2011).

Molecular target: the molecule itself
Experiment: SDS-PAGE and Western blot after immunoprecipitation; 2 µg purified rIF1 immunoprecipitated with anti-IF1 antibodies cross-linked on protein A/G resin, eluted in 0.2 M glycine pH 2.8, boiled in Laemmli buffer with SDS and DTT, 15% SDS-PAGE, blot with anti-IF1; bands at the size of monomer and dimer

B1: Recombinant human IF1 (mitochondrial Inhibitory Factor 1) (natural protein, UniProt Q9UII2-1 26-106, looked up)
chain: GSDQSENVDRGAGSIREAGGAFGKREQAEEERYFRAQSREQLAALKKHHEEEIVHHKKEIERLQKEIERHKQKIKMLKHDD
notes: mature peptide without the mitochondrial targeting signal, amplified from HeLa cell cDNA; Cloned at BamHI/HindIII into pBEn-SBP-SET1-Qa (Stratagene); also called rIF1; recombinant IF1
Question: With B1 as the protein, how does the “stoichiometry N” value read?
Answer: 2
